This is an account of results in PMC12365351.

In assay [1] the target is rNcSRS2-ST (recombinant Neospora caninum SRS2, residues 54-401, with C-terminal Twin-Strep-tag) (Neospora caninum). As to the kind of experiment: SEC; analytical SEC of the re-injected main peak, Superdex 200 Increase 10/300 GL, 0.1 M Tris-Cl pH 8.0, 0.15 M NaCl, 1 mM EDTA, 0.5 ml/min; MW estimated from calibration with LMW and HMW kits; self-association (dimer).
For assay [2], the target named is rNcSRS2* (recombinant Neospora caninum SRS2, residues 54-401, Strep-tag removed by enterokinase) (Neospora caninum). The experiment in a line: SEC; preparative SEC of the proteins after removal of the Strep-tag with enterokinase, 0.1 M Tris-Cl pH 8.0, 0.15 M NaCl, 1 mM EDTA; unique peak slightly shifted towards smaller size; self-association (dimer).
For assay [3], the target named is rNcSAG1* (recombinant Neospora caninum SAG1, residues 31-317, Strep-tag removed by enterokinase) (Neospora caninum). The description is as above.
Assay [4] deals with rNcSAG1-ST (recombinant Neospora caninum SAG1, residues 31-317, with C-terminal Twin-Strep-tag) (Neospora caninum). As to the kind of experiment: SEC; analytical SEC of the re-injected main peak, Superdex 200 Increase 10/300 GL, 0.1 M Tris-Cl pH 8.0, 0.15 M NaCl, 1 mM EDTA, 0.5 ml/min; MW estimated from calibration with LMW and HMW kits; self-association (dimer).

The stoichiometry N is the number of molecules, sites or subunits per partner or assembly. On to “rNcSRS2-ST (recombinant Neospora caninum SRS2, residues 54-401, with C-terminal Twin-Strep-tag) (domain or fragment)”, for which, in assay [1], the stoichiometry N is 2.
In the case of “rNcSRS2* (recombinant Neospora caninum SRS2, residues 54-401, Strep-tag removed by enterokinase) (domain or fragment)”, the stoichiometry N in assay [2] stood at 2.
For “rNcSAG1* (recombinant Neospora caninum SAG1, residues 31-317, Strep-tag removed by enterokinase) (domain or fragment)”, the stoichiometry N in assay [3] came out at 2.
For the substance “rNcSAG1-ST (recombinant Neospora caninum SAG1, residues 31-317, with C-terminal Twin-Strep-tag) (domain or fragment)”, the stoichiometry N in assay [4] was 2.
